# Experimental data as given in US20130156764A1, “NEUTRALIZATION OF FLT3 LIGAND AS A LEUKEMIA THERAPY” (The Johns Hopkins University, priority 2010, published 2013).
# B1: FL: Recombinant human FL (fms-related tyrosine kinase ligand) purchased from PeproTech; SEQ ID NO: 1 (protein, listed as Homo sapiens)
# chain: MTVLAPAWSPTTYLLLLLLLSSGLSGTQDCSFQHSPISSDFAVKIRELSDYLLQDYPVTVASNLQDEELCGGLWRLVLAQRWMERLKTVAGSKMQGLLERVNTEIHFVTKCAFQPPPSCLRFVQTNISRLLQETSEQLVALKPWITRQNFSRCLELQCQPDSSTLPPPWSPRPLEATAPTAPQPPLLLLLLLPVGLLLLAAAWCLHWQRTRRRTPRPGEQVPPVPSPQDLLLVEH
# Tests used:
# [1] = test system: primary AML blast samples harboring a FLT3/ITD mutation; experiment: MTT assay in primary AML blast samples with FLT3/ITD mutation with FL; format: cell-based, human; conditions: addition of exogenous FL, all 3 samples
# From the text: Leukemia cell specimens were provided by the Sidney Kimmel Cancer Center at Johns Hopkins Tumor and Cell Procurement Bank. All patients gave informed consent according to the Declaration of Helsinki. The specimens were obtained by Ficoll purifying mononuclear cells from the peripheral blood patients with FLT3/ITD AML. The mononuclear cells were aliquoted and stored frozen in liquid nitrogen in bovine serum with 10% DMSO for repeated use. Prior to each use, aliquots of these blasts were thawed rapidly into warm culture medium, incubated for 12 hours, and then recentrifuged over Ficoll to eliminate cells dying from the freeze-thaw process. Using this method, blasts were obtained that maintained satisfactory viability (as determined by Trypan blue exclusion) and responsiveness to cytotoxic agents in culture over 72 hours.
# Cytotoxicity was assessed using an MTT (Dimethyl-thiazol diphenyl tetrazolium bromide) assay. In selected cases, an Annexin-V binding apoptosis assay was also used to confirm that the cytotoxic effect observed (or lack thereof) was associated with an equivalent degree of apoptosis. MTT (Roche, Indianapolis, Ind.) and Annexin V (Pharmingen, San Diego, Calif.) assays were performed as described previously.
# In three primary samples from AML patients with FLT3/ITD mutations (FIG. 8), a similar pattern of response to FL and FLT3 inhibition was observed.
# [2] = test system: FLT3/ITD and FLT3/TKD in TF1 cells; experiment: FL stimulation, FLT3 phosphorylation in TF1/ITD and TF1/TKD cells; format: cell-based; conditions: FL 15 minutes after serum starvation
# Protocol: (§1) TF1 and BaF3 cells were transfected with pCINeo constructs containing either FLT3/ITD or FLT3/TKD mutation by electroporation (Bio-Rad, Hercules, Calif.). Stable transfectants were then selected by limiting dilution in 96-well plates with 1 mg/mL G418 (Invitrogen, Carlsbad, Calif.).
# (§2) The possibility of further activation of FLT3 mutant receptors by exogenous FL was also tested in cell lines in which FL autocrine, paracrine, or intracrine stimulation of FLT3 receptor might exist. […] TF1 cells expressing FLT3 mutant receptors were starved for 16 hours in serum-free medium and washed once with PBS to deplete soluble FL (either produced by the cells or contained in the serum). These cells were then stimulated with exogenous FL for 15 minutes. More than 2-fold enhancement of FLT3 phosphorylation was detected in both TF1/ITD and TF1/TKD cell lines (FIG. 12A). […] To assess the functional effect of exogenous FL, TF1/ITD and TF1/TKD cells were cultured in serum-free medium in the absence and presence of FL for 48 hours. Apoptosis was assessed by Annexin V and 7AAD staining followed by FACS analysis. […] There was no change of cell cycle status in response to FL in these cells (data not shown).
# [3] = test system: STAT5 and AKT phosphorylation; experiment: FL stimulation, downstream signaling immunoblot in TF1/ITD and TF1/TKD cells; format: cell-based
# Protocol: as §1, §2
# [4] = test system: BaF3/ITD and BaF3/TKD cells; experiment: Survival (MTT, trypan blue) of BaF3/ITD and BaF3/TKD cells with FL; format: cell-based; conditions: serum-free, 4 days
# Protocol: 2×10^4 cells in 100 μl serum-free medium were plated into triplicate wells of 96-well plates. Survival was assessed by MTT assay (Roche, Indianapolis, Ind.) and viable cell number counting by trypan blue (GIBCO, Rockville, Md.) exclusion according to the manufacturer's instructions.
# BaF3 is another cell line lacking expression of endogenous FLT3. BaF3 cells transfected with mutant forms of FLT3 were starved in serum-free medium for 16 hours and washed with PBS before FL stimulation. […] Changes of other FLT3 downstream signals were not observed. An MTT survival assay was performed in BaF3/ITD and BaF3/TKD cells cultured in serum-free medium in the presence and absence of FL for 4 days. […] The effect was also confirmed by counting viable cell numbers by trypan blue exclusion (FIG. 13C, P<0.05). These findings indicate that FL stimulation prolongs the survival of cells expressing FLT3 mutants.
molecule,measurement,setting,value
B1,metabolic activity of the sample in culture medium,[1],increased
same,enhancement of FLT3 phosphorylation,[2],More than 2 fold
same,AKT phosphorylation and AKT protein expression,[3]; TF1/ITD and TF1/TKD after FL stimulation,Slightly increased
same,STAT5 phosphorylation increase,[3]; both TF1/ITD and TF1/TKD,1.8 fold
same,"survival (MTT, confirmed by trypan blue)",[4],increased survival
